# Assay: soluble on expression in E. coli; label from the status in PepcDB or PDB records
row,Sequence,soluble on expression in E. coli
1,MTTGVRRRMGVEERRQQLIGVALDLFSRRSPDEVSIDEIASAAGISRPLVYHYFPGKLSLYEAALQRASDDLADRFVEPRQGPLGARLLRVMGRYFDFVDEHGPGFSALMRGGPAVGSTTTNALVDSVRQAAYVQILSHLDVTEPPARLELVVRSWISLAESTALLWLDGRRIPRAELETQLVHDFAALMAVSAAYDEEMGALVRRVLADEPEDGPFGDLVDRLLALSAR,soluble
2,GPGSAPSKDGHVFEMSRPEQAAYGLAMSLVRWHAFNRFCANCGTATDPTRDVGFSRFCPKCRKQHFPQLVPAVLVAVLDGKGNVILSQRRKESKVLTLLSGFVLHGESAEETVRREVEEESGARVSKVRYIGSQPWPYPYLMMMCYYAVADASPSLVVDASELERVMWVSKQDVRRALEGQHSDMELRGPGTTPYAMLKPWVDGKVDDRGRITKPQSQL,not soluble
3,MHKRATSPLSAARTRRKPHGWKKREDDGVGGRFLSIGECMVELSQAGNGLLRKGFAGDTFNAAWYARACLPQDWSVDYFTALGDDPLSEDMLAFIAEAGIGTEKIRRIKGGTPGLYLINLKDGERTFSYWRNAAAARQLAADADHLRKTVESADVVYFSGITLAILASAHDVDTFLAELRRARAAGKLVVFDPNIRPRLWADRDVMLETISNGARAATLVMPSFDDEASHFGDVSVEATIARYRSLGVENIVVKDGAKGATLDFGGSRSHAPAEKAVDVVDTTSAGDSFNGAFLARYVTGSSPEEAATFAARAAATVIGHHGALISPELLPLVG,not soluble
4,MIGPENCNSVSEPIAYVIILAGGRSSRMGYDKAQVMVDGRRLIDLCLESIASVHAHPIVVSGQDLQLTAAVTQVMEEPAFGGPVAGIAAGMRCCDTKAGLIGVIAVDAPRSGNYLNQLRRVVLTHPEVGVAHAVVEGYDQPLLAVWRYEALTQALHALGSPRNVAAKRLLRSATTPVIAVPVDSSARDYDTVAELSALGRVRLRLEHHHHHH,not soluble
5,MLKTILSIAGKPGLYKLISQGKNMLIVETVDAAKKRVPAYAHDKVISLADIAMYTDAEEVPLSEVLEAVKKKENGAVASINYKKASADELHAYFAEVLPNYDRDRVHNGDIKKLISWYNILVNNGITEFVEAPADSADKVEEAVAELEHHHHHH,soluble
6,MDMQHDDLNYEYLYGTTYPLMKNAGKAVADAVMKNYPDARTVCVVAGTGNNGGDAIVAGSILSAKYDVRVLIVTEVRSELARRALSEYGGRVIGLDGMEECMKCDVIIDGIFGVGISGDPKDPYRSVIENINRSCSHVVSVDIPSGLGTRYAVKPEITVTFTMEKYGMNQDNSGKIIVADIGIPPDVRKYAGPGDLLYYPKPDPSSHKGMNGTLAIVGGWEFHGSSVIAALAAERIGLDLVRVFVSPRNYQIVSGYDPGIIVRQVEKLDEKKLSEIYGNSAILLGPGMGKGDDAMEAARKIVSDSRVPMVVDADALDAVGAYSGSFAGRKIIITPHKGEFRRISGFEPTEENAISYARKKGLIVVLKGQVDVITNGEEVHYAKGGNARMTMGGTGDLLAGIISAFLARSVDPMRACLMGTYLNKALGEAAYSKHGYWYTVTDMISEIPGVMGKYIKI,not soluble
7,MLTSGETVNVVLDFTKCTSTDDQKKPGMMRGDLRISAFLIRPDNSISFSDEHFTITTMDKEPIYQFLRYSLKPDETASFTMTTLSMPEKAHKGEVIAYNCKFATALEHHHHHH,not soluble
8,MSKKPTSAYVHIPFCTQICYYCDFSKVFIQNQPVDAYLKALIQEFDSYGIRDLKTLYIGGGTPTAITAKQLEYLLNHLERNLNLDDLEEFTIEANPGDLTPEKIAVLQRSAVNRISLGVQTFNNKQLKQIGRSHNEEQIYSTIANLKTAGFHNISIDLIYALPGQTLDQVKENVAKALALDIPHLSLYSLILEHHTVFMNKMRRGKLNLPTEDLEAEMFEYIISEMEANGFEH,not soluble
9,PIFEEQPINTIYPEESLEGKVSLNCRARASPFPVYKWRMNNGDVDLTSDRYSMVGGNLVINNPDKQKDAGIYYCLASNNYGMVRSTEATLSFGYLDPFPPEERPEVRVKEGKGMVLLCDPPYHFPDDLSYRWLLNEFPVFITMDKRRFVSQTNGNLYIANVEASDKGNYSCFVSSPSITKSVFSKFIPLIPIPERTTKPYPADIVVQFKDVYALMGQNVTLECFALGNPVPDIRWRKVLEPMPSTAEISTSGAVLKIFNIQLEDEGIYECEAENIRGKDKHQARIYVQAFPEWVEHINDTEVDIGSDLYWPCVATGKPIPTIRWLKNGYAYHKGELRLYDVTFENAGMYQCIAENTYGAIYANAELKILALAPTFEMNPMKKKILAAKGGRVIIECKPKAAPKPKFSWSKGTEWLVNSSRILIWEDGSLEINNITRNDGGIYTCFAENNRGKANSTGTLVITDPTRIILAPINADITVGENATMQCAASFDPALDLTFVWSFNGYVIDFNKENIHYQRNFMLDSNGELLIRNAQLKHAGRYTCTAQTIVDNSSASADLVVRGPPGPPGGLRIEDIRATSVALTWSRGSDNHSPISKYTIQTKTILSDDWKDAKTDPPIIEGNMEAARAVDLIPWMEYEFRVVATNTLGRGEPSIPSNRIKTDGAAPNVAPSDVGGGGGRNRELTITWAPLSREYHYGNNFGYIVAFKPFDGEEWKKVTVTNPDTGRYVHKDETMSPSTAFQVKVKAFNNKGDGPYSLVAVINSAQDAPSEAPTEVGVKVLSSSEISVHWEHVLEKIVESYQIRYWAAHDKEEAANRVQVTSQEYSARLENLLPDTQYFIEVGACNSAGCGPPSDMIEAFTKKAPPSQPPRIISSVRSGSRYIITWDHVVALSNESTVTGYKVLYRPDGQHDGKLYSTHKHSIEVPIPRDGEYVVEVRAHSDGGDGVVSQVKISGAPTLSPSLLGLLLPAFGILVYLEF,soluble
10,MGGGEVKMMSLLEEMKGIYSKKGGKVKPFEKFEGELKEGYRFEYEKKLCEIDVAMFGLISGDLNPVHFDEDFASKTRFGGRVVHGMLTTSLVSAAVARLPGTVVLLEQSFRYTSPVRIGDVVRVEGVVSGVEKNRYTIDVKCYTGDKVVAEGVVKVLIW,soluble
11,MGSDKIHHHHHHMFYQLYELNHAALQPARLYADAVRMFYSNPLNPIAHTHWGRSVAAGAELFERTTRRYGKPAFGLDKTVVDWKSVEVTEKTVWSKPFCNLVRFERAMPAGRKPDPKLLIVAPMSGHYATLLRGTVEAMLPYADVHITDWVDARMVPLVDGSFDLDDYIDYIIEMFHALGPDTHVMAVCQPSVPVLAAVALMEAKGDPFVPSTMTLMGGPIDTRRNPTAVNLLAEEKGIDWFRDNVVMRAPWPVPGFGREVYPGFLQLSGFMSMNLDRHIIAHKDFFMHLVKNDGDNAEKHRDFYDEYMAVMDLTAEFYLQTVDTVFVRHALPKGEMKHRGAAIDTSAIRNVALFTVEGENDDISGLGQTKAAQDLCINIPADKKAHYMQPAVGHYGVFNGSRFRSEIVPRIVDFITSYGRQNRVAVKPKLVRTAKR,not soluble
12,MLQKDPCLDDILENSEKLENNSNKKNIDSIDTIKLSDIIEKMIEINSIVRIEKIFEEKIVSQNPVVNVVVNDGSARGLLSLWSEQISLLNELNEGDAILIENAHAPKKYKDRIHLALSKSGKISKIESDLPTIDELLKKSSAQRNDFSRKSISELKEGIGAELRGLIVAIHSKEPYFPVCDKCNKKMTLKKGYAVCKCGNKVDEEDENLKWLFLCTCTLDDGSGTIRVTLNNNTNYLDLEELKKIIIDDEEILDVLNNKLLGLDILTSGFTIYDEYLKDTAFRCNNWNKIDIMEEFNKKLKGLEHHHHHH,soluble
13,MGHHHHHHSHMKQKLLVTLLGLSALGASPVFAANTNVDLAEDAYIYGYSIDEAYKFFYHTAVENNYPLNRFQNIRALADDSYTAHPTINNDTLHLMGWLDVAAEPVIVSVPDMDEGRYWILHTMDMGHYTNAAFSSRTRGTKGGQFMFAAQDWQGEVPASVDEVVRVDSNLVKLMGRIMAVNDEDAKVALNYMDQWNIRTLSEYLGKNGPKPVQRTYPDPKKSTWLERVNFVLCDGSMGNADKQWLDKYQSIGVEPCKTDFTPEQLKLAKVGEKKGMEHLVELAPKMTDARTLLGTRDTLGDAPRDIFAEGTYLGQWGLPPIEASYRKSDFDSIGQKLDGSKHDYVMRFKAPNVSEFWSVTIYGNDNRLMAKNDLNRHSRGDRTMKADKDGYYTIYMSANEKGRADDPNFLPVPEKPFYAIMRFYGADDAIQSGEYQMPEIKVVK,soluble
